Measurements published in the DeepSol protein solubility set.

test: soluble on expression in E. coli; label from the status in PepcDB or PDB records

Soluble on expression in E. coli, soluble:
MCANIGVDPLASNKGFWAELLGIGDFYYELGVQIIEVCMLTRSHNGGLISLQELCNHLRQRRKKDREAVTEDDCLRAISKLKVLGSGFEVITIGKKKLVRSVPTELNKDHNQILELAQGQGFVIVEEVQRRLSWTSGRVIDALETLLEEGLAMIDNGHKDGKCRYWFPCVSSVYSSIGSDT, MCQSNQIVSHFLSHRNVTNELAEKISKDHYSYKPAETSMSAEELVKHILTSFHLFANVIKEGNASPFQNKQEETETDLNVLAKTYTEKTVAILEQLTEEQLDREIDLTSAFGRKVTGRALLQLAMEHEIHHKGNLFVYVREMGHTELPFYQQRMLEHHHHHH, MCRLLGFATAGSNTNLNGVLGMQNVRDFRNLSEIHNDGWGAALITVPDESPYRRDGGAPTPETGTAIYKNTIAARHDPIFDELANTPARGGLWHLRLASSNLPLILENQQPFYANGLSFIHNGDISDDQGRNIITNRAFPVDPSIVQSTGGRSDSAIFFAVILQYIGFGFALDEAVAQAVRELRKSYPKSSYNCMIQSQDQFIALCAAGREVTSKRIVEIYDQYGRGEQARDYRVLRYRALGGNDDQSKGVVVASSGFDQRAEDGWTRLENDQMIVASNRTGEFRVRSI, MDAQYDISFADVEKAHINIRDSIHLTPVLTSSILNQLTGRNLFFKCELFQKTGSFKIRGALNAVRSLVPDALERKPKAVVTHSSGNHGQALTYAAKLEGIPAYIVVPQTAPDCKKLAIQAYGASIVYCEPSDESRENVAKRVTEETEGIMVHPNQEPAVIAGQGTIALEVLNQVPLVDALVVPVGGGGMLAGIAITVKALKPSVKVYAAEPSNADDCYQSKLKGKLMPNLYPPETIADGVKSSIGLNTWPIIRDLVDDIFTVTEDEIKCATQLVWERMKLLIEPTAGVGVAAVLSQHFQTVSPEVKNICIVLSGGNVDLTSSITWVKQAERPASYQSVSVHHHHHH

Soluble on expression in E. coli, not soluble:
MAYFTAKRASSMGASTVPSGNDHLLEALTLCDCILSRYKRCGVQLNDAEAAAFANLQQRISSISGHAADAACPAGATRKQSQELGLHEYAQLAQRCLIFQNPLAQIVATINEEFSKLVSCSVRTHYANTNDAVLCDPVHDTVATIDTSTPIGRCAKTKTTVTISDTVYIPLCYNSHVVGCLEVESTAIDTSTPFFGYLLQVAALTLQNATSIDTLRWETRKAEAMVGMATRLARDTLEESVLVQSIINTAKTLTESDRCSIFLVKADGSLEAHFEDGNVVVLPAGTGIAGHVAESGAVVNIPNAYEDDRFHRSVDKVTGYHTRTILCLPIAFEGTIVAVAQLINKLDMVTQSGQRLPRVFGRRDEELFETFSMFAAASLRNCRINETLLKEKKKSDAILDVVALLSNTDIRDVDSIVRHVLHGAKKLLNADRSSMFLLDKERNELYSKMADSANEIRFPCGQGIAGTVAESGVGENIMDAYADSRFNSAVDRQLGYRTQSILCEPITLNGEVLAVVQLVNKLGDDGSVTCFTPTDQETFKVFSLFAGISINNSHLLEFAVNAGREAMTLNLQRNSITAQRAPKSVKVIAVTPEEREAVMSIDFGGAYDFTSPGFNLFEVREKYSEPMDAAAGVVYNLLWNSGLPEKFGCREQTLLNFILQCRRRYRRVPYHNFYHVVDVCQTLHTYLYTGKASELLTELECYVLLVTALVHDLDHMGVNNSFYLKTDSPLGILSSASGNNSVLEVHHCSLAIEILSDPAADVFEGLSGQDVAYAYRALIDCVLATDMARHGDLSRVFDDMAKAGYDSNDQESRRLVMETLIKAGDVSNVTKPFETSRMWAMAVTEEFYRQGDMEKEKGVEVLPMFDRSKNNELARGQIGFIDFVAGKFFRDIVGNLFHGMQWCVDTVNSNRAKWQEILDGRRDSIRPSIV, MAYKFLSEDWIKAYAEEWNKNEKLMNDLKNFSASIKYYVEGKENDAVELIIEKGKAVSAGKADPNKRYDFELWASLENWKKLATGEMGPRAAMLTKRLKFKGSMITAMKYMGAFEESLKMMGRVPTVWDV, MAYVPTLIANNVLNRAFAEKYRISPMKLQKILYFAAAEYQKNTGKSLFSERFETWQYGPVLRSVYSEFRPFSRDFITRFAKDAENQSHMINESADPALQRVLDTVWSATKGHSAVDLSRITHMENSAWDKSFQNEQPFLSSDHIAADDTYRRELGLTTA, MCELLGMSANVPTDICFSFTGLVQRGGGTGPHKDGWGITFYEGKGCRTFKDPQPSFNSPIAKLVQDYPIKSCSVVAHIRQANRGEVALENTHPFTRELWGRNWTYAHNGQLTGYKSLETGNFRPVGETDSEKAFCWLLHKLTQRYPRTPGNMAAVFKYIASLADELRAKGVFNMLLSDGRYVMAYCSTNLHWITRRAPFGVATLLDQDVEIDFSSQTTPNDVVTVIATQPLTGNETWQKIMPGEWRLFCLGERVV, MCGQKFELKIDNVRFVGHPTLLQHALGQISKTDPSPKREAPTMILFNVVFALRANADPSVINCLHNLSRRIATVLQHEERRCQYLTREAKLILALQDEVSAMADGNEGPQSPFHHILPKCKLARDLKEAYDR, MCILFIALNAHPQYPLIICANRDEFHHRPTAPAQFWPPERNMLAGKDLQAGGTWFGVNTQGQLAGVTNLRVAQKNQEPMRSRGELVIQALNSGSLICPNWLVEHAQDYQPFNLVFGQGTNLYCFNSIRRETVKLTQGFHAISNGAMDDVWPKMAKGQRSLEALIQQSAQLEVESLIKLMQDDSQPQDNELPDTGVGLEWKRRLAAIYIRHPDYGTRSTSILLQNAQGEIQFTEVRYDGKGRRLGQQDFHFTLPPQLPPEPDCLVVFLEHHHHHH, MCIMCELKNFRRNITCFEGYDENSFIGKWYDDGVWDDEEYWKLENDLIEVRKKYPYPMDIPRYVVIGIGTIIDFLMVPNWKLFEIKASPWLPDSVGINERYERLKTMLRYIFTEKDIVNVQFDYYNKK, MCLGIPARVVEVLDGPLPMAVVDMAGEQRPCSVMYVPEVQVGQFVLLQNGYAMEVLDEKSAQESLATIAEFNLVQQVQLAPREPR, MCLICDRIKMIKINQNKFFVKELKTGYVVLGDNQHFKGYTLFLYKEHENELYQLEPNEKLNFLEEMSLVGEAVSKAFECEKMNYELLGNGDSHLHWHLFPRISGDLGEYGYYGKGPVWWYPREKMYSTDNEPTDEELEKLKQRLNVELDRLFYEKLEHHHHHH, MCMGIFNRISNMIKAKTNSALDEMENPVELLDQKIRDMEKSFNEGKRSSAQIFGNLKDTEKKMNEAKEESAQYDEKVRLAMSKGNEELAKKALKLKLDSDKKFESLKASYEGQRAKADVLKGKLVELEKELDKTRSYRDEAVARLNNAEASKQINEVIANVQSKSNSINIDDIERSISRKESYAAGLEELKGESLDDEFAKLEELSLDDELNKYRTQNTQEDKTSDSEVDLELEKYKNKLEHHHHHH, MCMSATLSRPGCGACCIAPSISSPIPGMPQGKPAGSRCVQLDDDMRCRIFGHPDRPDVCSSLQPSTELCADDREQAMTWLLKLEELTLPARLEHHHHHH, MCPFDVLASVKDDPSLSPQLREKIGGALTRLREICKTADQPSVAKALPRSCAHNYFKEMISGHAPLRFSCHSSESTHTRVKHFDIASSRLPGPIVMSSSKTLMQRTTPALQSPKEIFAELNVIAFQTLRYIDEVEQIEFDVTNVREHDGSIMEDKERLFLSVCCSVFANFSFFASLHINAEKFLHFLRKLFTCYPLDNSYHNATHAADALQMMSLFFREPTVNFLFSDEEIAICFLAVLAVDVAHPGASDTLLVALDHPLASVFGDVAITEHASLLVLTSLLVLEDNFFFSTPDMAVSVDSAHLLKEALYDVVLNAALRSRPSLMSALRDIETSGRITDADAPKLMAALLVMACNSFAFRSQAQCCRMGAWFLSELHREECEMERHGIRVTLPHVAGADCAAVLSDYINVVVKPVTAATLALVPRDLQDRLEWNADLVDAAASTGGRACKVVVENSLVQWMTSSLSVMEILKKVATHASSVDRKASKCAILNASPSRSQGTAPDMMRADSLSSNSSTSGSMSAAKRDEATSNCPQLSFTSEPCSAAGSPTARPGRSEHYFSFLRLYDKCERAGESAKNFVGQLIFLALQLDPRYIAAYARKEYGDDCCGAECAEMGLLISKMEEAPSTAEVIASRPPGGSFSNRVADEIDHTDSFVLLLMDMYCSREAALAEMESVVLVSDKAKTPPPAEPAAPKAVPQFQQNSPIRMPVNTESKNTGPRLRLVP, MDADEGQDMSQVSGKESPPVSDTPDEGDEPMPIPEDLSTTSGGQQSSKSDRVVASNVKVETQSDEENGRACEMNGEECAEDLRMLDASGEKMNGSHRDQGSSALSGVGGIRLPNGKLKCDICGIICIGPNVLMVHKRSHTGERPFQCNQCGASFTQKGNLLRHIKLHSGEKPFKCHLCNYACRRRDALTGHLRTHSVIKEETNHSEMAEDLCKIGSERSLVLDRLASNVAKRKSSMPQKFLGDKGLSDTPYDSSASYEKENEMMKSHVMDQAINNAINYLGAESLRPLVQTPPGGSEVVPVISPMYQLHKPLAEGTPRSNHSAQDSAVENLLLLSKAKLVPSEREASPSNSCQDSTDTESNNEEQRSGLIYLTNHIAPHARNGLSLKEEHRAYDLLRAASENSQDALRVVSTSGEQMKVYKCEHCRVLFLDHVMYTIHMGCHGFRDPFECNMCGYHSQDRYEFSSHITRGEHRFHMS, MDAIITGESERIGLSVIDNNDVEHLIETNESGEITYHEQDGYPDDSSKRTDEGNEYVNQARKYAKYYVYLKRGYDTVSAPENPVRIDAVRQAIAQMDLETFETHFGDLYQQFSSETDGSAEPVYDVPPQATTPPIYAQNVYLGIDPLETDLGDELAAKHDLDITAESAADVAIADLSTEEIKQWGEFTGEFATRAIEEQIDLSDAVYIDNTSQLYVKHPEGTDLVAADDHLEPTSREPDTVIELLPIELESLEYFQSFMDHYLRCQIRDVFIEMGVVPPEEFRVLGLGQFMAAHCYSYIDFYPEFHNPESGAFTQQTSLF, MDAVVATQTPAEVFDVVVVGGGPAGATAATDLARAGRRVALLDPEGRPKPCGGAIPPRLMSEFAIPDDLPCAQVSGARALAPSGRVVDMPITGAVVSMVDRAVFDPWLRARAHQAGACRLHGRFEGFDRQEDGALVVLWRPEGAAVANRIVARYVVGADGARSKVAALAVAGAAPPCVAAYHEIIRAPAAPAASAPTPATAAGPAYDPARCDVIYRGDISPDFYGWIFPHGETLSIGSGTAVKGFSLREAVALLRREAGLDGLEVVRREGAPIPLRPRKRWDNGRDVVLIGDAAGVVAPASGEGIYYAMASGKMAAEALGEALAGAGPAALAQVRRRFLKAHGKTFWSLGLLQRFWYRSDRWRESFVAICADRDVQRLVWQSYLTKDLARGNMGAYMRIFFKDVAHLIGIAKSLEHHHHHH
